Data on one substance can be found in publication doi:10.1101/2021.11.08.467742.

For this experiment, the target named is Vibrio maritimus FtsA residues 1-396 (Vibrio maritimus). Briefly: SPR. Background: Surface plasmon resonance follows binding to a sensor surface in real time, without labels.

“Vibrio maritimus FtsN cytoplasmic peptide, residues 1-29” gave a fold weaker than the EcFtsA^1-405-EcFtsN^1-32 interaction (SPR) of 3 fold.
